The target of the assay is Glial cell line-derived neurotrophic factor (GDNF), immobilised for SPR (UniProt P39905). Description: SPR. In general terms: In SPR one partner is held on a chip, and binding of the other changes the refractive index at the surface.

B1: Activin receptor-like kinase 5 (ALK5), analyte in SPR (receptor)
chain: LQCFCHLCTKDNFTCVTDGLCFVSVTETTDKVIHNSMCIAEIDLIPRDRPFVCAPSSKTGSVTTTYCCNQDHCNKIELPTTVKSSPGLGPVELAAVIAGPVCFVCISLMLMVYICHNRTVIHHRVPNEEDPSLDRPFISEGTTLKDLIYDMTTSGSGSGLPLLVQRTIARTIVLQESIGKGRFGEVWRGKWRGEEVAVKIFSSREERSWFREAEIYQTVMLRHENILGFIAADNKDNGTWTQLWLVSDYHEHGSLFDYLNRYTVTVEGMIKLALSTASGLAHLHMEIVGTQGKPAIAHRDLKSKNILVKKNGTCCIADLGLAVRHDSATDTIDIAPNHRVGTKRYMAPEVLDDSINMKHFESFKRADIYAMGLVFWEIARRCSIGGIHEDYQLPYYDLVPSDPSVEEMRKVVCEQKLRPNIPNRWQSCEALRVMAKIMRECWYANGAARLTALRIKKTLSQLSQQEGIKM
As usually defined, the Kd is the constant that tells how readily two partners part at equilibrium. Lower therefore signals higher affinity. B1 gave a dissociation constant (Kd) of 85.5 nM.

For the origin of these results see publication PMC6842044.
